B1: anti-PD-L1 ScFV clone 38A1 (scFv)
scFv: EVQLVESGGGLVQPGGSLRLSCAASGFTFSNYAMSWVRQAPGKGLEWVSTISGSGGTTYYADSVKGRFTISRDNSKNTLYLQMNSLRVEDTAVYYCAKDWFRSSSPDAFDIWGQGTTVTVSAGGGGSGGGGSGGGGSGAPSYVLTQPPSVSVAPGQTARITCGGNNIGRKIVHWYQQRPGQAPVLVIYYDTDRPAGIPERFSGSNSGNMATLTISTVGAGDEADYYCQVWDTGSDHVVFGGGTKLTVL
notes: also called 38A1-scFV; scFV 38A1
B2: anti-PD-L1 ScFV clone 19H9 (scFv)
scFv: QVQLQESGGGLVKPGGSLRLSCAASGFTFSSYSMNWVRQAPGKGLEWVSGINTAGDTHYPESVKGRFTISRDNARNSLNLQMNSLRAEDTAVYYCVRERVEREYSGYDAFDIWGQGTTVTVSAGGGGSGGGGSGGGGSGAPNFMLTQPHSVSESLGKTVTISCTGSSGSIARKFVQWYQQRPGSSPTTVIYENNQRPSGVSDRFSGSIGSSSNSASLTISGLKTEDEADYYCQSYDSSNVVFGGGTKVTVL
notes: also called 19H9-scFV; scFV 19H9

Tests used:
[1] = target: T1, Programmed Death 1 Ligand 1 (PD-L1) (human, UniProt Q9NZQ7 19-290); test: flow cytometry of 293-PD-L1 stained with 10 fold concentrated supernatant of TIL line M1015, Alexa 647 anti-human Fcγ [panel C]
T1 construct: also called CD274; B7-H1

[2] = target: T1, Programmed Death 1 Ligand 1 (PD-L1); test: flow cytometry on EL4 PD-L1 cells, goat anti-human FITC, % of PD-L1 positive cells

T1 sequence (Q9NZQ7 19-290): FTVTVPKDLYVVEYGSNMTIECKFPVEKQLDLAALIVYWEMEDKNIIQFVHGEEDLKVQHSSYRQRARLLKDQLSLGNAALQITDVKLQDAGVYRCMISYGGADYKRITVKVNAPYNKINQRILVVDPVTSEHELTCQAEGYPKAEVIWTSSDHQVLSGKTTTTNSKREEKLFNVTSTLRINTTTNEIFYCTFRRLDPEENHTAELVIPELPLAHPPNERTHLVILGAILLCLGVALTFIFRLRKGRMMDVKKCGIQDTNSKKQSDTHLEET

| Molecule | % of cells in the upper left (PDL1 positive) quadrant [1] [%] | binding result [2] |
| --- | --- | --- |
| FMC63-scFV-Fc (Fc fusion) | 1.02 |  |
| B1 |  | binds |
| B2 |  | binds |

Source: patent US20190298770A1 (IOVANCE BIOTHERAPEUTICS, published 2019)
